Experimental data published in patent US20240402174A1 (Takeda / Millennium, published 2024).

Tests used:
Test in all cases: multiplex microsphere immunoassay
GI.2 VLP = biological target: T1, GI.2 VLP (norovirus Hu/GI.2/Jingzhou/2013401/CHN, UniProt Q04542 1-546)
T1 construct: also called GI.2 Jingzhou
T1 chain: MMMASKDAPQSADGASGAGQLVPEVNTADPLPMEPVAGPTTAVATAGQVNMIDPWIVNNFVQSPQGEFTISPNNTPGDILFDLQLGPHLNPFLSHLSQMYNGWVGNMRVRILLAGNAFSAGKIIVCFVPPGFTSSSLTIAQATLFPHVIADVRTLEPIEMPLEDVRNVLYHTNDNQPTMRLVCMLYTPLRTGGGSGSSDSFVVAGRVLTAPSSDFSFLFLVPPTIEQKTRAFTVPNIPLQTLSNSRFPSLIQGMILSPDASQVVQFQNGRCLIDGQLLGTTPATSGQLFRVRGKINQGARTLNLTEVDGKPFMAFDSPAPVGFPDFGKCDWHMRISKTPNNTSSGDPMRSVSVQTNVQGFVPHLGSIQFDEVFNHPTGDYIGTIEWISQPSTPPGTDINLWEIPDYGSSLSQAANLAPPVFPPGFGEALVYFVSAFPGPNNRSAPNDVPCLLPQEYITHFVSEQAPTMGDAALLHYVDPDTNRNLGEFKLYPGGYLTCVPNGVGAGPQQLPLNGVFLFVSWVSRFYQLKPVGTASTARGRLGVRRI

GI.1 VLP = biological target: T2, GI.1 VLP (norovirus Hu/GI.1/Norwalk/1968/US, UniProt Q83884 1-530)
T2 construct: also called GI.1 Norwalk; GI.I/Norwalk VLP
T2 sequence: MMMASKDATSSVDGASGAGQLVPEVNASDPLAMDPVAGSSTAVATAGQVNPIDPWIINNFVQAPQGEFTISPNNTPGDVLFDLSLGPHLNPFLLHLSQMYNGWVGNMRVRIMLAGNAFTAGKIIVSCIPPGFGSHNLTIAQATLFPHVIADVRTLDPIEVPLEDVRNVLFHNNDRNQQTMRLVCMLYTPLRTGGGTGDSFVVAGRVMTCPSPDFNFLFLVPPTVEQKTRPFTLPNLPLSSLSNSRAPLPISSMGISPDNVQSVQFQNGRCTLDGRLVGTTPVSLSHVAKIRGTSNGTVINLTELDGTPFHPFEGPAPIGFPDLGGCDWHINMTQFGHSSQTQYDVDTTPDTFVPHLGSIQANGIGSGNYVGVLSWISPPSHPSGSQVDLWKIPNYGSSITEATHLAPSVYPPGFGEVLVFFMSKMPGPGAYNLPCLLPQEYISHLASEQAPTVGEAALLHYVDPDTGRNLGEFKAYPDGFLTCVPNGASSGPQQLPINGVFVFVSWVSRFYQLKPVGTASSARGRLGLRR

GI.6 VLP = biological target: T3, GI.6 VLP (norovirus Hu/GI.6/TCH-099/USA/2003)
T3 construct: also called GI.6 USA
T3 chain: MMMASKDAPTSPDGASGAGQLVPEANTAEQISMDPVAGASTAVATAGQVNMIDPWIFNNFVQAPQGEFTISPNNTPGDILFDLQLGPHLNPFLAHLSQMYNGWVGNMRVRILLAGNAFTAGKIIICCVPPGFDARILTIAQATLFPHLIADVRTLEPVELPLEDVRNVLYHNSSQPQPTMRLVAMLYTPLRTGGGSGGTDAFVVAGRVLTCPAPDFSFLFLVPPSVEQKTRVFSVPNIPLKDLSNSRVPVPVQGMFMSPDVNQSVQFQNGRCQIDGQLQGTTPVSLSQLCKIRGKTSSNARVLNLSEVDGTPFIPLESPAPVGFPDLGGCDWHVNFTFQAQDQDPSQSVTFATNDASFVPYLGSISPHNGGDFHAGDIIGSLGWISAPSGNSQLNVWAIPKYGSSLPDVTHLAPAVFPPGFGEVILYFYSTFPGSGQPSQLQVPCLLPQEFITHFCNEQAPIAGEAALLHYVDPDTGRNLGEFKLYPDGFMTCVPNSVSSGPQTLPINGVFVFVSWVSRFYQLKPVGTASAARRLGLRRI

GI.7 VLP = biological target: T4, GI.7 VLP (norovirus Hu/GI.7/Providence191/2010/USA)
T4 construct: also called GI.7 Providence
T4 chain: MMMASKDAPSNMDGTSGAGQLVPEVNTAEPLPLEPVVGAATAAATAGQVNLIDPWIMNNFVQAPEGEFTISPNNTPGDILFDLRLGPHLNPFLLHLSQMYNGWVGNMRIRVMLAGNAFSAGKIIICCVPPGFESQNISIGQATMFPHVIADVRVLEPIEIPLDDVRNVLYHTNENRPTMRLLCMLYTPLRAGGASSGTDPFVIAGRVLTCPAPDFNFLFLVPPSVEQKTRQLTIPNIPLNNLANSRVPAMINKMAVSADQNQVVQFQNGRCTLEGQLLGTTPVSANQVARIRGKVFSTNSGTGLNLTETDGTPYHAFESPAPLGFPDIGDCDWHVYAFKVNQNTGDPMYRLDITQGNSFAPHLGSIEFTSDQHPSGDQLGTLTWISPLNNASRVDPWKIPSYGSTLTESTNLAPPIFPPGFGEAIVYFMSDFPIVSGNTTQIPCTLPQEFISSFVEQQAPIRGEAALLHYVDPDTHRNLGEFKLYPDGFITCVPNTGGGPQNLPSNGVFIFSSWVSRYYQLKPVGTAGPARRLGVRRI

GI.3 VLP = biological target: T5, GI.3 VLP (norovirus Hu/GI.3/JKPG_883/SWE/2007)
T5 construct: also called GI.3 Sweden
T5 chain: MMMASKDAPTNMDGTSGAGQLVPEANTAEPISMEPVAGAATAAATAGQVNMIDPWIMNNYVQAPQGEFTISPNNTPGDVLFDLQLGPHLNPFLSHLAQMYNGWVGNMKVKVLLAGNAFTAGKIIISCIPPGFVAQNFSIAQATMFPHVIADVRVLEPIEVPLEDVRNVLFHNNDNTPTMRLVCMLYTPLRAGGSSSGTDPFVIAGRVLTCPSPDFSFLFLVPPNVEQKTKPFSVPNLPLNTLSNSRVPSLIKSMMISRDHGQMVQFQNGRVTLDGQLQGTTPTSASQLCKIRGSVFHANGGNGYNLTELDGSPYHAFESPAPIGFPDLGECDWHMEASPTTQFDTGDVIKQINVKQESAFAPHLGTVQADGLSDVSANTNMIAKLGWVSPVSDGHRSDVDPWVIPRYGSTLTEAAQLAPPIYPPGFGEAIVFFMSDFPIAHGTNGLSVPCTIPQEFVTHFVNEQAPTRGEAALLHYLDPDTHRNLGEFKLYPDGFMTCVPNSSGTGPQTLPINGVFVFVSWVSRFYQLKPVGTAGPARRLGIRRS

Measured: binding result

B1: human mAb 1431 (antibody, V domains shown)
VH: QVQLVQSGGGLVQPGGSLRLSCAASGFAFSNHGMHWVRQAPGKGLEWLSYISGSTGAIHYANSVKGRFTISRDNARNSLDLQMNSLGDEDTAVYYCARDGPRPDGTGYAGPSNDYWGQGTLVSVSS
VL: EIVLTQSPASLSLSPGERATLSCKASRSISIYLAWYQQKPGQAPRLLIYDASYRAIGIPARFSGSGSGTDFTLTISNLEPEDFAVYYCQHRSSWPALTFGGGTKVEI
notes: also called A1431
no binding: all assays above
